Results reported in article PMC9788759.

Target: reconstituted 26S proteasome with LD555 donor dye on Rpn9 (F2AzF) and LD655 acceptor dye on Rpt5 (Q49AzF), wild type (yeast | not stated | yeast (endogenous gene tagged in strain W303) | yeast (endogenous in W303)) (UniProt P33299)
UniProt P33299, sequence (P33299 whole entry, looked up): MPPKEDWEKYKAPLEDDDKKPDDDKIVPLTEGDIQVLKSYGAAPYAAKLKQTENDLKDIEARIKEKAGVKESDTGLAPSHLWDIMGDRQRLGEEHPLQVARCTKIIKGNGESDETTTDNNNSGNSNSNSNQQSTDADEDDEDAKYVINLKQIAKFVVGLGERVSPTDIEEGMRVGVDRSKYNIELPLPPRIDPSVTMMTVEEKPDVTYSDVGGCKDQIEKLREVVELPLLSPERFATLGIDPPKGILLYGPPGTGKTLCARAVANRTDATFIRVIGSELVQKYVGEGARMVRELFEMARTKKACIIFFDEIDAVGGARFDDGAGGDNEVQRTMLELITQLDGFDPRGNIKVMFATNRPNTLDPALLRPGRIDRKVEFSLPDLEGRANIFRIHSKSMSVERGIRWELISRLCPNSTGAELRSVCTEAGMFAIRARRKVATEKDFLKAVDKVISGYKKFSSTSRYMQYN

rate of the s1-to-non-s1 transition (ks1) of the substrate-free proteasome in the single-molecule FRET conformational dynamics assay; 1.2 s^-1 without chains: 0.4 s⁻¹
Substance: unanchored K48-linked ubiquitin tetramer (from UniProt P0CG63 1-76)
